Test results published in publication PMC9738581, “Dissection of Functional Domains of Orc1-2, the Archaeal Global DNA Damage-Responsive Regulator”.

Legend:
Details in all cases: protein: recombinant; tags: His; label: 5'-32P; blunt
Orc1-2 WB = biological target: T1, Orc1-2 WB (Saccharolobus islandicus REY15A, UniProt F0NF18 1-413, E154A); assay: EMSA; similar or stronger than WT; EMSA: 20 mM HEPES pH 7.6, 10 mM (NH4)2SO4, 1 mM DTT, 0.2% Tween-20, 30 mM KCl, 40 °C 20 min, 2 nM probe; 8% native PAGE in 40 mM Tris, 20 mM boric acid
T1 sequence: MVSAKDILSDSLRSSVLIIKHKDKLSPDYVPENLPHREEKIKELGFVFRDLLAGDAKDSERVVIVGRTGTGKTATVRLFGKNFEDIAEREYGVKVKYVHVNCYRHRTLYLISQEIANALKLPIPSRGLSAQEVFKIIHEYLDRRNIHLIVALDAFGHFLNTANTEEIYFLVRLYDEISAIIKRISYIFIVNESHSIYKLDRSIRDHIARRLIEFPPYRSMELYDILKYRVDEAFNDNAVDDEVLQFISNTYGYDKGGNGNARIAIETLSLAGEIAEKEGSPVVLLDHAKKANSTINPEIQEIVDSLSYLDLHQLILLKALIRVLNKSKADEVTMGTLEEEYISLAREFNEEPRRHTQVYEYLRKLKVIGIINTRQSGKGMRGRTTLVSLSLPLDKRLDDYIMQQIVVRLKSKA

Orc1-2 ΔC = biological target: T2, Orc1-2 ΔC (Saccharolobus islandicus REY15A, UniProt F0NF18 1-298); assay: EMSA; EMSA: 20 mM HEPES pH 7.6, 10 mM (NH4)2SO4, 1 mM DTT, 0.2% Tween-20, 30 mM KCl, 40 °C 20 min, 2 nM probe; 8% native PAGE in 40 mM Tris, 20 mM boric acid
T2 sequence: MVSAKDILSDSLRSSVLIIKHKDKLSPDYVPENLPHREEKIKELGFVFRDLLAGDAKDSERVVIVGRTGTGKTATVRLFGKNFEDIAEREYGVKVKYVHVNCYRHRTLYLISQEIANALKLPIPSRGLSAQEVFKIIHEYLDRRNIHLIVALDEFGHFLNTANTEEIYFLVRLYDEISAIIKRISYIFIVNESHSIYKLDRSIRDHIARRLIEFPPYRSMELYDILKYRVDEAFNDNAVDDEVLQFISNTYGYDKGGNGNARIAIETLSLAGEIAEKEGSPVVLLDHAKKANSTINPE

Orc1-2 wH = biological target: T3, Orc1-2 wH (Saccharolobus islandicus REY15A, UniProt F0NF18 1-413, R353A;R354A;R381A;R383A); assay: as above
T3 sequence: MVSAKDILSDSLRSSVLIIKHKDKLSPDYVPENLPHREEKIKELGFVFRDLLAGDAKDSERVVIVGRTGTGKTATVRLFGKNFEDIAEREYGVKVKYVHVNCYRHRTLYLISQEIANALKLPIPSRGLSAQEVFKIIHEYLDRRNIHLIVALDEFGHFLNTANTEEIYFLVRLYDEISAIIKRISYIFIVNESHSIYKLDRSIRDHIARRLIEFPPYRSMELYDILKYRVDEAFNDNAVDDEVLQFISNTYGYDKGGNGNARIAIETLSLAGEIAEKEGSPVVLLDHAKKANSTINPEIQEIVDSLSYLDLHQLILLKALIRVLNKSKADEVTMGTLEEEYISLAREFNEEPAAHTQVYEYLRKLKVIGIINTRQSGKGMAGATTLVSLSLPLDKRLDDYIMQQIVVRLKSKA

Orc1-2 WT [1] = biological target: T4, Orc1-2 WT (Saccharolobus islandicus REY15A, UniProt F0NF18 1-413); assay: as above
T4 sequence: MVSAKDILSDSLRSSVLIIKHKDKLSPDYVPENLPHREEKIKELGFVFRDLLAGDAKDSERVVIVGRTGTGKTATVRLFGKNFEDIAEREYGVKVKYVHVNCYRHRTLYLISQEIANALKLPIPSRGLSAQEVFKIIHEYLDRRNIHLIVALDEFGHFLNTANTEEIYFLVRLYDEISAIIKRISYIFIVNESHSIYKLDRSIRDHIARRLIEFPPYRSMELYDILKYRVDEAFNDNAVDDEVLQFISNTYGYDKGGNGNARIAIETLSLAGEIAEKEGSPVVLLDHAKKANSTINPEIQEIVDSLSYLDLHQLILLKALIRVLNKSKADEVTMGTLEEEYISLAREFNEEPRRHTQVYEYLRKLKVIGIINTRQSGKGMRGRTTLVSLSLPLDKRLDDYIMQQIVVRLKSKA

Orc1-2 ΔN = biological target: T5, Orc1-2 ΔN (Saccharolobus islandicus REY15A, UniProt F0NF18 299-413); assay: EMSA; large complexes, distributive; two distinct complexes at lowest protein concentration; EMSA: 20 mM HEPES pH 7.6, 10 mM (NH4)2SO4, 1 mM DTT, 0.2% Tween-20, 30 mM KCl, 40 °C 20 min, 2 nM probe; 8% native PAGE in 40 mM Tris, 20 mM boric acid
T5 sequence: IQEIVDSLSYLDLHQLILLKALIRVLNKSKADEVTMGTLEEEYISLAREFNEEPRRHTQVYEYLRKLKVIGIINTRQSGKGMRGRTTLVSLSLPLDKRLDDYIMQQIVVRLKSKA

Orc1-2 WT [2] = biological target: T4, Orc1-2 WT; assay: EMSA; 25 nM protein, unlabeled specific competitor; affinity very similar to PupsE; EMSA: 20 mM HEPES pH 7.6, 10 mM (NH4)2SO4, 1 mM DTT, 0.2% Tween-20, 30 mM KCl, 40 °C 20 min, 2 nM probe; 8% native PAGE in 40 mM Tris, 20 mM boric acid

B1: PupsE (dsDNA)
DNA 1: CTATAAAGGAAGTTTTAAGTAATTTCGGTATTGTGTGAGTATATTT
DNA 2: AAATATACTCACACAATACCGAAATTACTTAAAACTTCCTTTATAG
B1: binds (Orc1-2 WB); no binding (Orc1-2 ΔC); no binding (Orc1-2 wH). B1: binds (Orc1-2 WT [1]); binds (Orc1-2 ΔN).

B2: Porc1-2 (dsDNA)
DNA 1: TTTGAGAAAGAATCAAGAAAAGTTTCGGACTACTCTCTTAGATAAA
DNA 2: TTTATCTAAGAGAGTAGTCCGAAACTTTTCTTGATTCTTTCTCAAA
B2: binds (Orc1-2 WT [2]).
